Publication PMC8213764, “Human intelectin-1 (ITLN1) genetic variation and intestinal expression” (Scientific Reports, 2021)
Where a chain is given by its changes, count along the chain named. “And” between values parts separate entries of the source, which are not always exact repeats. Identical values can stand only once.

B1: Human intelectin-1 (ITLN1) V109, from V109 homozygote (VV) ileal specimens (natural protein, human (endogenous in ileum), UniProt Q8WWA0 19-298, looked up)
chain: TDEANTYFKEWTCSSSPSLPRSCKEIKDECPSAFDGLYFLRTENGVIYQTFCDMTSGGGGWTLVASVHENDMRGKCTVGDRWSSQQGSKAVYPEGDGNWANYNTFGSAEAATSDDYKNPGYYDIQAKDLGIWHVPNKSPMQHWRNSSLLRYRTDTGFLQTLGHNLFGIYQKYPVKYGEGKCWTDNGPVIPVVYDFGDAQKTASYYSPYGQREFTAGFVQFRVFNNERAANALCAGMRVTGCNTEHHCIGGGGYFPEASPQQCGDFSGFDWSGYGTHVGYS
modifications: single glycosylation site at N163
notes: Human intelectin-1 (ITLN1) with valine at position 109 (rs2274907 A allele), endogenous in ileal mucosa; also called VV genotype; V109-ITLN1; source: endogenous, ileal specimens of V109 homozygote individuals, in lysate
B2: Human intelectin-1 (ITLN1) D109, from D109 homozygote (DD) ileal specimens (natural protein, human (endogenous in ileum), UniProt Q8WWA0 19-298, looked up)
chain: B1 chain with V91D
modifications: single glycosylation site at N163
notes: Human intelectin-1 (ITLN1), natural missense variant rs2274907 (T allele) with aspartic acid at position 109, endogenous in ileal mucosa; Natural allele (rs2274907 T); also called DD genotype; D109-ITLN1; source: endogenous, ileal specimens of D109 homozygote individuals, in lysate

Target: the molecule itself
Assay: non-reducing SDS-PAGE immunoblot; human ileal lysates (150 mM NaCl, 1% Triton X-100, 0.5% sodium deoxycholate, 0.1% SDS, 50 mM Tris pH 8.0), heated at 95 °C for 30 min without 2-mercaptoethanol, gradient SDS-PAGE (4-20%), immunoblot; oligomers stable under denaturing conditions

Protein | stoichiometry N
B1 | 3 and 6
B2 | 3 and 6
